Numbered stars: 1 amine (or outer) side, 2 acyl side, 3 side chain; on linkers, the order of the positions; unused ones are H or OH. Square brackets hold non-standard residues; d marks the D form. Side chains are listed from the residue outwards. * marks the point of attachment. TTDS = 4-[3-[2-[2-(3-aminopropoxy)ethoxy]ethoxy]propylamino]-4-oxo-butanoyl; γGlu = O=C(O)[C@H](CCC(=O)[*:2])N[*:1]; Stearoyl = CCCCCCCCCCCCCCCCCC(=O)*; Palmitoyl = CCCCCCCCCCCCCCCC(=O)*; αMeK = C[C@](N)(CCCCN)C(=O)O; hLys = NCCCCC[C@H](N)C(=O)O; AEEA = NCCOCCOCC(=O)O; Aib = CC(C)(N)C(=O)O
B1: Relaxin peptide analogue of SEQ ID NO: 18 (peptide)
peptide: Ac-LEGREKVRAK(Ac)I[Aib][Aib]EGK([TTDS-TTDS-γGlu-γGlu-γGlu-Palmitoyl])STWS[dK]RKK(Ac)-NH2
B2: Relaxin peptide analogue of SEQ ID NO: 19 (peptide)
peptide: Ac-LEGREKVRAK(Ac)I[Aib][Aib]EGK([AEEA-AEEA-AEEA-γGlu-γGlu-γGlu-Palmitoyl])STWS[Aib]RKK(Ac)-NH2
SMILES: CCCCCCCCCCCCCCCC(=O)N[C@@H](CCC(=O)N[C@@H](CCC(=O)N[C@@H](CCC(=O)NCCOCCOCC(=O)NCCOCCOCC(=O)NCCOCCOCC(=O)NCCCC[C@H](NC(=O)CNC(=O)[C@H](CCC(=O)O)NC(=O)C(C)(C)NC(=O)C(C)(C)NC(=O)[C@@H](NC(=O)[C@H](CCCCNC(C)=O)NC(=O)[C@H](C)NC(=O)[C@H](CCCNC(=N)N)NC(=O)[C@@H](NC(=O)[C@H](CCCCN)NC(=O)[C@H](CCC(=O)O)NC(=O)[C@H](CCCNC(=N)N)NC(=O)CNC(=O)[C@H](CCC(=O)O)NC(=O)[C@H](CC(C)C)NC(C)=O)C(C)C)[C@@H](C)CC)C(=O)N[C@@H](CO)C(=O)N[C@H](C(=O)N[C@@H](Cc1c[nH]c2ccccc12)C(=O)N[C@@H](CO)C(=O)NC(C)(C)C(=O)N[C@@H](CCCNC(=N)N)C(=O)N[C@@H](CCCCN)C(=O)N[C@@H](CCCCNC(C)=O)C(N)=O)[C@@H](C)O)C(=O)O)C(=O)O)C(=O)O
B3: Relaxin peptide analogue of SEQ ID NO: 20 (peptide)
peptide: Ac-LEGREKVRAK(Ac)I[Aib][Aib]EGK([TTDS-TTDS-TTDS-γGlu-γGlu-γGlu-Stearoyl])STWS[Aib]RKK(Ac)-NH2
B4: Relaxin peptide analogue of SEQ ID NO: 21 (peptide)
peptide: Ac-LEGREKVRAK(Ac)I[Aib][Aib]EGK([AEEA-AEEA-AEEA-AEEA-γGlu-γGlu-γGlu-Stearoyl])STWS[Aib]RKK(Ac)-NH2
SMILES: CCCCCCCCCCCCCCCCCC(=O)N[C@@H](CCC(=O)N[C@@H](CCC(=O)N[C@@H](CCC(=O)NCCOCCOCC(=O)NCCOCCOCC(=O)NCCOCCOCC(=O)NCCOCCOCC(=O)NCCCC[C@H](NC(=O)CNC(=O)[C@H](CCC(=O)O)NC(=O)C(C)(C)NC(=O)C(C)(C)NC(=O)[C@@H](NC(=O)[C@H](CCCCNC(C)=O)NC(=O)[C@H](C)NC(=O)[C@H](CCCNC(=N)N)NC(=O)[C@@H](NC(=O)[C@H](CCCCN)NC(=O)[C@H](CCC(=O)O)NC(=O)[C@H](CCCNC(=N)N)NC(=O)CNC(=O)[C@H](CCC(=O)O)NC(=O)[C@H](CC(C)C)NC(C)=O)C(C)C)[C@@H](C)CC)C(=O)N[C@@H](CO)C(=O)N[C@H](C(=O)N[C@@H](Cc1c[nH]c2ccccc12)C(=O)N[C@@H](CO)C(=O)NC(C)(C)C(=O)N[C@@H](CCCNC(=N)N)C(=O)N[C@@H](CCCCN)C(=O)N[C@@H](CCCCNC(C)=O)C(N)=O)[C@@H](C)O)C(=O)O)C(=O)O)C(=O)O
B5: Relaxin peptide analogue of SEQ ID NO: 22 (peptide)
peptide: LEGREKVRAKIXXEGKSTFSKRAK
modifications: Ac-L-E-G-R-E-K-V-R-A-K(Ac)-I-Aib-Aib-E-G-K(PEG2DGA-PEG2DGA-PEG2DGA-gE-gE-gE-Palm)-S-T-F-S-Mly-R-A-K(Ac)-NH2
B6: Relaxin peptide analogue of SEQ ID NO: 23 (peptide)
peptide: Ac-LEGRELVRAK(Ac)I[Aib][Aib]EGK([TTDS-TTDS-TTDS-γGlu-γGlu-γGlu-Palmitoyl])STFS[αMeK]RAK(Ac)-NH2
B7: Relaxin peptide analogue of SEQ ID NO: 24 (peptide)
peptide: Ac-LEGREFVRAK(Ac)I[Aib][Aib]EGK([TTDS-TTDS-TTDS-γGlu-γGlu-γGlu-Palmitoyl])STFS[αMeK]RAK(Ac)-NH2
B8: Relaxin peptide analogue of SEQ ID NO: 25 (peptide)
peptide: Ac-LEGREQVRAK(Ac)I[Aib][Aib]EGK([TTDS-TTDS-TTDS-γGlu-γGlu-γGlu-Palmitoyl])STFS[αMeK]RAK(Ac)-NH2
B9: Relaxin peptide analogue of SEQ ID NO: 3 (peptide)
peptide: Ac-LEGREKVRAK(Ac)I[Aib][Aib]EGK([TTDS-TTDS-TTDS-γGlu-γGlu-γGlu-Palmitoyl])STFS[αMeK]RAK(Ac)-NH2
B10: Relaxin peptide analogue of SEQ ID NO: 26 (peptide)
peptide: Ac-LEGREKVRAK(Ac)I[Aib][Aib]EGK([AEEA-AEEA-AEEA-AEEA-γGlu-γGlu-γGlu-Stearoyl])STFS[αMeK]RAK(Ac)-NH2
SMILES: CCCCCCCCCCCCCCCCCC(=O)N[C@@H](CCC(=O)N[C@@H](CCC(=O)N[C@@H](CCC(=O)NCCOCCOCC(=O)NCCOCCOCC(=O)NCCOCCOCC(=O)NCCOCCOCC(=O)NCCCC[C@H](NC(=O)CNC(=O)[C@H](CCC(=O)O)NC(=O)C(C)(C)NC(=O)C(C)(C)NC(=O)[C@@H](NC(=O)[C@H](CCCCNC(C)=O)NC(=O)[C@H](C)NC(=O)[C@H](CCCNC(=N)N)NC(=O)[C@@H](NC(=O)[C@H](CCCCN)NC(=O)[C@H](CCC(=O)O)NC(=O)[C@H](CCCNC(=N)N)NC(=O)CNC(=O)[C@H](CCC(=O)O)NC(=O)[C@H](CC(C)C)NC(C)=O)C(C)C)[C@@H](C)CC)C(=O)N[C@@H](CO)C(=O)N[C@H](C(=O)N[C@@H](Cc1ccccc1)C(=O)N[C@@H](CO)C(=O)N[C@@](C)(CCCCN)C(=O)N[C@@H](CCCNC(=N)N)C(=O)N[C@@H](C)C(=O)N[C@@H](CCCCNC(C)=O)C(N)=O)[C@@H](C)O)C(=O)O)C(=O)O)C(=O)O
B11: Relaxin peptide analogue of SEQ ID NO: 27 (peptide)
peptide: Ac-LEGRERVRAK(Ac)I[Aib][Aib]EGK([TTDS-TTDS-TTDS-γGlu-γGlu-γGlu-Palmitoyl])STFS[αMeK]RAK(Ac)-NH2
B12: Relaxin peptide analogue of SEQ ID NO: 28 (peptide)
peptide: Ac-LEGRE[hLys]VRAK(Ac)I[Aib][Aib]EGK([TTDS-TTDS-TTDS-γGlu-γGlu-γGlu-Palmitoyl])STFS[αMeK]RAK(Ac)-NH2
B13: Relaxin peptide analogue of SEQ ID NO: 29 (peptide)
peptide: Ac-LEGREKVR[Aib]K(Ac)I[Aib][Aib]EGK([TTDS-TTDS-TTDS-γGlu-γGlu-γGlu-Palmitoyl])STFS[αMeK]RAK(Ac)-NH2
B14: Relaxin peptide analogue of SEQ ID NO: 30 (peptide)
peptide: Ac-LEGREKVRAK(Ac)I[Aib][Aib]EGK([TTDS-TTDS-TTDS-γGlu-γGlu-γGlu-Stearoyl])STWS[αMeK]RAK(Ac)-NH2
B15: Relaxin peptide analogue of SEQ ID NO: 31 (peptide)
peptide: Ac-LEGRERVRAK(Ac)I[Aib][Aib]EGK([TTDS-TTDS-TTDS-γGlu-γGlu-γGlu-Palmitoyl])STWS[Aib]RRK(Ac)-NH2
B16: Relaxin peptide analogue of SEQ ID NO: 32 (peptide)
peptide: LEGREKVRAKIXXEGKSTFSKRAK
modifications: Ac-L-E-G-R-E-K-V-R-A-K(Ac)-I-Aib-Aib-E-G-K(PEG2DGA-PEG2DGA-PEG2DGA-gE-gE-gE-Stea)-S-T-F-S-Mly-R-A-K(Ac)-NH2
B17: Relaxin peptide analogue of SEQ ID NO: 34 (peptide)
peptide: Ac-LEGREKVRAK(Ac)I[Aib][Aib]EGK([TTDS-TTDS-γGlu-γGlu-γGlu-Stearoyl])STFS[αMeK]RAK(Ac)-NH2
B18: Relaxin peptide analogue of SEQ ID NO: 35 (peptide)
peptide: Ac-LEGREKVRAK(Ac)I[Aib][Aib]EGK([TTDS-TTDS-TTDS-γGlu-γGlu-γGlu-Palmitoyl])STW[Aib]KRAK(Ac)-NH2
B19: Relaxin peptide analogue of SEQ ID NO: 36 (peptide)
peptide: Ac-LEGREKVRAK(Ac)I[Aib][Aib]EGK([TTDS-TTDS-TTDS-γGlu-γGlu-γGlu-Palmitoyl])STFS[dK]RAK(Ac)-NH2
B20: Relaxin peptide analogue of SEQ ID NO: 4 (peptide)
peptide: Ac-LEGREKVRAK(Ac)I[Aib][Aib]EGK([TTDS-TTDS-γGlu-γGlu-γGlu-Palmitoyl])STWS[Aib]RKK(Ac)-NH2
B21: Relaxin peptide analogue of SEQ ID NO: 37 (peptide)
peptide: Ac-LEGRELVRAK(Ac)I[Aib][Aib]EGK([TTDS-TTDS-TTDS-γGlu-γGlu-γGlu-Palmitoyl])STWS[Aib]RRK(Ac)-NH2
B22: Relaxin peptide analogue of SEQ ID NO: 39 (peptide)
peptide: Ac-LEGREFVRAK(Ac)I[Aib][Aib]EGK([TTDS-TTDS-TTDS-γGlu-γGlu-γGlu-Palmitoyl])STWS[Aib]RRK(Ac)-NH2

These binders were tested against T1, human RXFP1 (human, UniProt Q9HBX9 1-757) (assay: cell-based or functional assay).
T1 sequence (looked up): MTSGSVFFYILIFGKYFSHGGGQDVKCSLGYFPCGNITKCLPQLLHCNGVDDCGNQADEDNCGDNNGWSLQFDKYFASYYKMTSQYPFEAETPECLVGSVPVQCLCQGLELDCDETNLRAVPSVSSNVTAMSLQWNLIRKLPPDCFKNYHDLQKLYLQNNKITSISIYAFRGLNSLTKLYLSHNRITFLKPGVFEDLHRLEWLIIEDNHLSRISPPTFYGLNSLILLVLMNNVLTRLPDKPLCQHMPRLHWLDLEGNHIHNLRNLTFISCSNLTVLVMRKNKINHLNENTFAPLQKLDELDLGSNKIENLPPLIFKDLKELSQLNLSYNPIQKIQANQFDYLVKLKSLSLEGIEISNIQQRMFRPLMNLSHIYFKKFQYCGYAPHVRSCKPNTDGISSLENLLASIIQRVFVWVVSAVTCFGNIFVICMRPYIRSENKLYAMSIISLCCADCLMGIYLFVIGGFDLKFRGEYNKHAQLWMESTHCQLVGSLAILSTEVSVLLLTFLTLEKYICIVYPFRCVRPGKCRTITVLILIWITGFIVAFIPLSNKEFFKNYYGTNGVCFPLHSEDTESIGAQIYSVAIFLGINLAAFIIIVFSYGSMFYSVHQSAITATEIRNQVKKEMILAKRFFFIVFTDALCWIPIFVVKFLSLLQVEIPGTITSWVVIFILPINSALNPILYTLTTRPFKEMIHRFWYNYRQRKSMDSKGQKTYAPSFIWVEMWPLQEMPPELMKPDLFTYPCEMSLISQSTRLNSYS

Row | EC50 (nM), OVCAR 5 cells (cAMP) [nM] | EMax, OVCAR 5 cells (cAMP) [%] | Binder
1 | 1.54 | 92 | B1
2 | 11.5 | 94 | B2
3 | 0.15 | 96 | B3
4 | 0.65 | 93 | B4
5 | 1 | 92 | B5
6 | 11.1 | 92 | B6
7 | 36.4 | 100 | B7
8 | 28.7 | 100 | B8
9 | 0.34 | 97 | B9
10 | 0.43 | 96 | B10
11 | 1.8 | 98 | B11
12 | 0.62 | 88 | B12
13 | 1.6 | 88 | B13
14 | 0.21 | 89 | B14
15 | 0.19 | 94 | B15
16 | 0.1 | 97 | B16
17 | 0.14 | 90 | B17
18 | 2.33 | 91 | B18
19 | 3.6 | 93 | B19
20 | 1.5 | 89 | B20
21 | 5.6 | 98 | B21
22 | 8.7 | 93 | B22
